± gives the uncertainty stated by the source.

The data set can be described thus: amyloid nucleation score (Sup35N fusion, yeast selection) (log enrichment); library NNK2; higher = more nucleation; inactive = no reads after selection. The essentials:
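Random libraries were run with three technical output replicates. In each, psi-negative yeast expressing Sup35N fused to peptides of 20 random codons were induced 24 hours with 100 μM copper sulfate and grown 7 days at 30°C on medium lacking adenine and uracil, and input and output plasmid inserts were Illumina-sequenced. The nucleation score is the DiMSum log enrichment of output over input reads, centred on the mode score of non-aggregating sequences, and sequences under 100 input reads were excluded.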

FSQGYWLLMA: the amyloid nucleation score is 0.305 ± 0.23.
With RLNALLVWFVRVSMALVRES, the amyloid nucleation score was -0.661 ± 1.1.
The value for NWGTGQPYNRMCMVH was “inactive”.
In the case of YPFILVVTIEYACLVRRLGV it was -0.309 ± 0.23; in that of IPMPSCVQYYSVDYRWASLL, -1.27 ± 0.44; in that of TTFILNMMLYNSCTYVYMSL, 8.549 ± 0.073.
In turn, YRLAFKMRNHGYQVELGLSV came in with an amyloid nucleation score of -0.088 ± 1.1.
Consider VAVTLNFLIGVIGCRGILMG, for which the amyloid nucleation score is 5.482 ± 0.043.
In the case of GVGVGLYKFLTPCFYGEDDE it was 0.594 ± 0.57.
As for FDYFF, the amyloid nucleation score entry was “inactive”.
For the substance MYTLYS, the amyloid nucleation score result was “inactive”.
The value for QRQDDSVFHDVSHLGQGSSK was 9.066 ± 0.078; that for QRGRGERMFITQCLVDRMCF was -0.117 ± 0.31.
In the case of YWGGLCHLMSYRFTCIKYVG it was -0.698 ± 0.64; in that of LYVYMCIPLDYLSSRVDSKR, 5.67 ± 0.094.
Regarding IRSSWIANVLSANSRGRNNQ, the amyloid nucleation score came to 0.382 ± 0.33.
In the case of ELSLTCNGDQLIGMKGGADK it was 0.008 ± 0.38.
In turn, HLLLEKDPSVWLWPKNRPGS registered an amyloid nucleation score of 3.35 ± 0.088.
Substance FYIGFYSPGLCVRFKFFSAR displayed an amyloid nucleation score of -1.85 ± 1.1.
For the substance MRFRLCNYLLRRVWDLNRGA, the amyloid nucleation score is -1.18 ± 0.39.
Regarding GGGNCKKGYGCDVDCYESEG, the amyloid nucleation score is -0.735 ± 0.56.
On to TRWSHK, for which the amyloid nucleation score entry is “inactive”.
Substance VLFSRFDSVWHVAIAVSARV displayed an amyloid nucleation score of 0.671 ± 0.42.
On to ICYILILYTELVRSSLPFLG, for which the amyloid nucleation score entry is “inactive”.
As to YRTPYFIAIQDQRYCLVSLG, the amyloid nucleation score is -0.87 ± 0.45.
In the case of SKMYMPAVWMDGPSPQTTMW it was 0.73 ± 0.37; in that of NFLCVSDKGCDCVESKLG, 8.145 ± 0.033.
Substance SDWFW gave an amyloid nucleation score of -0.664 ± 0.5.
For DCPLYRWDTWRLSGSRT, the amyloid nucleation score entry was “inactive”.
Substance HMLAPCFNM showed an amyloid nucleation score of -1.58 ± 0.78.
LKNYSGLMPVI: the amyloid nucleation score was determined as 3.41 ± 0.068.
For the substance HGLYCYPGYSDQCVTFVHGY, the amyloid nucleation score result is “inactive”.
As for YLGLPLQDLRRVIMSEHVLV, the amyloid nucleation score stood at 0.779 ± 0.37.
The value for GKMGYFEWGVLDYIVRLSGT was 0.851 ± 0.27; that for SHHHSQTRKIDPSTDFSQSS was -0.047 ± 1.1.
Turning to FVSAHRYWCHMTLSAVMGLH, the amyloid nucleation score was determined as 3.04 ± 0.12.
As to RFNWFFRHV, the amyloid nucleation score was 0.524 ± 0.81.
In the case of NPLYEARKRNRLYTFGATRF it was 3.65 ± 0.084.
ILGLPSINSSISLHKTITDP registered an amyloid nucleation score of 2.86 ± 0.056.
For the substance HKGCIIVWKTKRGLCRSARC, the amyloid nucleation score was -0.384 ± 0.79.
Take PLWVEGFMCSNGMCILGRSG: the amyloid nucleation score stood at 1.77 ± 0.14.
Take FAYLPSTVVGVSHSTLGPLI: the amyloid nucleation score came out at 0.221 ± 0.43.
As for VFGSYCGSVPRAAKFAMT, the amyloid nucleation score entry is “inactive”.
In the case of RSLIFLNWGYSV it was 3.59 ± 0.056.
In the case of CDTLTRRFVRCNVWFQCKR it was 3.96 ± 0.056.
In the case of VVVIGNFVSPRDIRFISMYT, the amyloid nucleation score amounted to 8.118 ± 0.047.
IIYYIMVTFWYSVYQPFRSF came in with an amyloid nucleation score of -0.081 ± 0.79.
CSSWRAYWNSGLQFLVIFGV displayed an amyloid nucleation score of -0.737 ± 0.32.
On to VCRPDINVAHHPGFNFIVRS, for which the amyloid nucleation score result was “inactive”.
The substance DFITVYECHCRIFGCVDREA registered an amyloid nucleation score of -0.352 ± 0.5.
The substance RSGNRGPVARYVGYERCMGK displayed an amyloid nucleation score of 0.629 ± 0.56.
In the case of LTGFLNGAGNN it was 1.75 ± 0.12.
In the case of DTQGIR, the amyloid nucleation score is -0.212 ± 0.65.
In the case of YGLGKTVFTTDGPGMLNGQA it was 1.18 ± 0.47.
The substance NVMKVLSNRL showed an amyloid nucleation score of 1.61 ± 0.1.
As to DICAIIVHWCDDLNVAYWYL, the amyloid nucleation score is 0.058 ± 1.
In the case of FDNRNVSVSYPYNKMGNRVM it was 2.57 ± 0.069; in that of CDVLRY, -0.825 ± 0.48.
On to HYVPDPDITL, for which the amyloid nucleation score is -0.504 ± 0.32.
YCYKSCCRDKLY gave an amyloid nucleation score of -0.072 ± 1.1.
The value for LYVYGGSLNPGLVMFVPCWK was -0.774 ± 0.76; that for GLDPRCNNTPVTLYVLSPWV was -0.588 ± 1.1.
LYDMTCRSSVKGNV showed an amyloid nucleation score of -1.19 ± 0.75.
As to GVSASQSTMLNCDNVTEDVS, the amyloid nucleation score turned out to be 0.753 ± 0.22.
LELVCRPISMALLEEWKGTR displayed an amyloid nucleation score of 0.393 ± 0.48.
The value for LANNSERMAAQDEVYSNCRM was -0.506 ± 0.24; that for VLISVIWLRGRKLSVGWKKD was 0.593 ± 0.53.
As for NGTCLYAYIMIRLISNEFSR, the amyloid nucleation score is -0.417 ± 0.42.
For the substance MTYRSLPEYTDLLWVTYVER, the amyloid nucleation score stood at 0.369 ± 0.46.
For the substance SYCYWMFSVLGGSSASEFRY, the amyloid nucleation score entry was “inactive”.
For GNVRVECANLYRAVLPDMGH, the amyloid nucleation score was -0.167 ± 0.63.
Regarding LTNKLELNLGASIADSVGNN, the amyloid nucleation score was -0.89 ± 0.49.
As to TMWRVIGSVYFVKFFSATLG, the amyloid nucleation score was -0.07 ± 0.43.
RGWLRFMEQNGTYSEYDVDL came in with an amyloid nucleation score of 12.82 ± 0.022.
For TILCFCAC, the amyloid nucleation score is 4.86 ± 0.056.
In the case of EFCMEDQSMSLLWDYY it was -0.183 ± 1; in that of VHSSVRQMSDY, 0.168 ± 0.4; in that of DNCVIRALQRRNVLVV, -1.18 ± 0.39.
As to YGWFFVYDEVLLFISYSNVV, the amyloid nucleation score result is “inactive”.
Take VFVWECGAIQSLLISYMNDM: the amyloid nucleation score is -0.784 ± 0.53.
VSWTPWESIFSGVMV registered an amyloid nucleation score of -0.568 ± 0.61.
The value for GGPCDRGTFMMCDPWSFSLL was 0.513 ± 0.39; that for NHRAIYF was 0.205 ± 0.77.
Substance PGDGTFLMFLACGCFRPFCG came in with an amyloid nucleation score of -0.181 ± 0.49.
As for SSDNRFCVDDFEVGVCGVMR, the amyloid nucleation score worked out at 2.84 ± 0.07.
As for ILGLFSFPKMPMVDYNIWMR, the amyloid nucleation score was -0.137 ± 1.1.
In the case of GYSDYVSYVKGC, the amyloid nucleation score was determined as 0.182 ± 0.8.
With SDLTIVVSMLGFIPCSCHAF, the amyloid nucleation score was found to be 6.328 ± 0.05.
In turn, FWSTTDILVGRTSHTGTVCV came in with an amyloid nucleation score of 0.118 ± 0.26.
On to PPTTT, for which the amyloid nucleation score came out at 0.621 ± 0.43.
SIGFPSMSMRSWILFTSLYR had an amyloid nucleation score of 0.004 ± 0.8.
The value for VFAWLIVGIWACLFGARIFW was -0.291 ± 0.4; that for MIQRFVISSGYRGFYLTLLI was “inactive”.
In the case of MSFNGCFDRMRREDRYEI it was 0.16 ± 0.65.
In the case of SGFGGLEGFIRPSYSLLAGW it was -0.424 ± 0.48; in that of RRGNLGDAMNNMARFCSYSF, “inactive”.
In turn, RPTAIPAHLIVFSEFCEAEW showed an amyloid nucleation score of 0.739 ± 0.45.
As for YCHPILMRYKPVYTCHYSLM, the amyloid nucleation score was 4.86 ± 0.053.
In turn, SYYEWARGTSVVLIAFVTSF gave an amyloid nucleation score of -0.189 ± 0.48.
The value for SRNLTVNK was -0.072 ± 0.79; that for FKASWVVRASNKDTHIHRGG was -0.144 ± 0.49; that for KITMDPGLVRIHNFGQTSLV was 0.408 ± 0.62.
Regarding RSFGLSDPIKTTGKTSV, the amyloid nucleation score result is “inactive”.
Regarding HYVERWDDAHVFYGWKSDAV, the amyloid nucleation score entry is “inactive”.
In the case of SLLLYYMGGK it was 5.114 ± 0.042; in that of LSNLGTNYR, “inactive”.
As for LTVRDLVPPPAMANRFLTVI, the amyloid nucleation score was -0.016 ± 0.44.
The substance RRMMRP returned an amyloid nucleation score of 2.2 ± 0.4.
FFEMFGCHMFLLMAYLTI gave an amyloid nucleation score of 0.164 ± 0.63.
As for VVPYS, the amyloid nucleation score entry was “inactive”.
With VTSYHFRMSCAVREALSSRY, the amyloid nucleation score was determined as 4.26 ± 0.055.
In turn, WWLSGA registered an amyloid nucleation score of 0.898 ± 0.35.
As to LTYLFVQSSVAWLSLMIH, the amyloid nucleation score worked out at 0.253 ± 0.6.
Take LIMYR: the amyloid nucleation score is -0.83 ± 0.3.
Turning to IRCSVVDLCESSADSTSVRP, the amyloid nucleation score entry is “inactive”.
The value for TDLECKQLG was 1.88 ± 0.11; that for CARMGASLWI was 0.214 ± 0.65.
Take LGMCYWGLVTCH: the amyloid nucleation score was found to be 0.749 ± 0.38.
TGILMWAGLQVHV displayed an amyloid nucleation score of 1.86 ± 0.13.
For the substance IQCTCTPDYPVLSLSVMVNF, the amyloid nucleation score is 8.361 ± 0.078.
As for VSDSNFNNGRYWLSVWRDVV, the amyloid nucleation score came out at 4.25 ± 0.067.
The value for REGVQVIQTGLVEYKLG was -0.029 ± 0.79; that for FRGLYRARNGVIKRMGLGWH was 0.645 ± 0.47; that for DWCPTCIWRICSHVTQSWSS was 6.325 ± 0.055.
The substance NFVIQ yielded an amyloid nucleation score of 0.011 ± 0.56.
VWPLCGCAWRWSGKWGGTRW displayed an amyloid nucleation score of 6.41 ± 0.077.
The substance ADHVDAYSFRDNDLSYQVYL showed an amyloid nucleation score of 1.41 ± 0.46.
As to WFDGDQDSNRQTVPIPQLPP, the amyloid nucleation score was 0.549 ± 0.45.
The value for MPLCECHNKGHVDFCDTRTA was -0.072 ± 1.1; that for ARVRTMSVRFPVLSVVCYKL was 3.69 ± 0.057; that for MSKGVYIYNIYYLVMSGVPL was 4.9 ± 0.063.
The substance HNRISQRRLRLGLRGHWSRK gave an amyloid nucleation score of 0.691 ± 0.53.
AVICVSSRIQFMWMLGGDGT gave an amyloid nucleation score of 5.693 ± 0.045.
With FYTDPALISHTVEIILVLLI, the amyloid nucleation score entry is “inactive”.
LLVYAQLYRVWVWF showed an amyloid nucleation score of -0.134 ± 0.22.
Regarding QSRSYFRRGVTSCLHPGWET, the amyloid nucleation score worked out at 0.452 ± 0.53.
LWHESC came in with an amyloid nucleation score of -0.119 ± 0.33.
The value for ENGIICR was 0.088 ± 0.49; that for CTWTYE was 5.92 ± 0.077.

The values above are taken from the supplement of paper PMC12042874.
